# Source: patent US20250339569A1 (3B PHARMACEUTICALS, published 2025)
# Starred links: 1 amine or outer side, 2 acyl side, 3 side chain; linkers in the order of their positions; H or OH if unused. Positions of bridges follow the written chain, without caps; N, C: chain ends. Non-standard residues stand in square brackets, D forms with d. Groups on a side chain read outwards from the residue. Primed or numbered codes have the meaning given here. *: point of attachment. APAc″ = 2-(4-(amino)piperidin-1-yl)acetic acid, NC1CCN(CC(=O)*)CC1; DOTA = O=C(O)CN1CCN(CC(=O)O)CCN(CC(=O)*)CCN(CC(=O)O)CC1; Phe(4-CF3) = N[C@@H](Cc1ccc(C(F)(F)F)cc1)C(=O)O; Phe(4-I) = N[C@@H](Cc1ccc(I)cc1)C(=O)O; mXylylene = c1cc(C[*:1])cc(C[*:2])c1; Bta = N[C@@H](Cc1csc2ccccc12)C(=O)O; Cha = N[C@@H](CC1CCCCC1)C(=O)O; Propanoyl(3-OH) = O=C(CCO)*; 4Amc = not defined here; APAc = not defined here; Ac5c = NC1(C(=O)O)CCCC1; Inp′ = not defined here; Apr = not defined here; Dap = NC[C@H](N)C(=O)O; Ttds″ = Ttds spacer; Sar = CNCC(=O)O
# B1: 3BP-4257 (peptide)
# peptide: {DOTA}-SDCE[dP]DWLTW[Dap]C-NH2
# modifications: lactam 11-2; linker 3-12 via mXylylene
# SMILES: CC(C)C[C@@H]1NC(=O)[C@H](Cc2c[nH]c3ccccc23)NC(=O)[C@H](CC(=O)O)NC(=O)[C@H]2CCCN2C(=O)[C@H](CCC(=O)O)NC(=O)[C@@H]2CSCc3cccc(c3)CSC[C@@H](C(N)=O)NC(=O)[C@H](CNC(=O)C[C@H](NC(=O)[C@H](CO)NC(=O)CN3CCN(CC(=O)O)CCN(CC(=O)O)CCN(CC(=O)O)CC3)C(=O)N2)NC(=O)[C@H](Cc2c[nH]c3ccccc23)NC(=O)[C@H]([C@@H](C)O)NC1=O
# B2: 3BP-3934 (peptide)
# peptide: {DOTA}-YCE[dP]KWLEWSC-NH2
# modifications: linker 2-11 via mXylylene; lactam 5-8
# SMILES: CC(C)C[C@@H]1NC(=O)[C@H](Cc2c[nH]c3ccccc23)NC(=O)[C@@H]2CCCCNC(=O)CC[C@H](NC1=O)C(=O)N[C@@H](Cc1c[nH]c3ccccc13)C(=O)N[C@@H](CO)C(=O)N[C@H](C(N)=O)CSCc1cccc(c1)CSC[C@H](NC(=O)[C@H](Cc1ccc(O)cc1)NC(=O)CN1CCN(CC(=O)O)CCN(CC(=O)O)CCN(CC(=O)O)CC1)C(=O)N[C@@H](CCC(=O)O)C(=O)N1CCC[C@@H]1C(=O)N2
# B3: 3BP-3058 (peptide)
# peptide: Ac-VYCEGDWLTWAC-NH2
# modifications: linker 3-12 via mXylylene
# SMILES: CC(=O)N[C@H](C(=O)N[C@@H](Cc1ccc(O)cc1)C(=O)N[C@H]1CSCc2cccc(c2)CSC[C@@H](C(N)=O)NC(=O)[C@H](C)NC(=O)[C@H](Cc2c[nH]c3ccccc23)NC(=O)[C@H]([C@@H](C)O)NC(=O)[C@H](CC(C)C)NC(=O)[C@H](Cc2c[nH]c3ccccc23)NC(=O)[C@H](CC(=O)O)NC(=O)CNC(=O)[C@H](CCC(=O)O)NC1=O)C(C)C
# B4: 3BP-3311 (peptide)
# peptide: Ac-VYCE[Sar]D[Bta]LTWQC-NH2
# modifications: linker 3-12 via mXylylene
# SMILES: CC(=O)N[C@H](C(=O)N[C@@H](Cc1ccc(O)cc1)C(=O)N[C@H]1CSCc2cccc(c2)CSC[C@@H](C(N)=O)NC(=O)[C@H](CCC(N)=O)NC(=O)[C@H](Cc2c[nH]c3ccccc23)NC(=O)[C@H]([C@@H](C)O)NC(=O)[C@H](CC(C)C)NC(=O)[C@H](Cc2csc3ccccc23)NC(=O)[C@H](CC(=O)O)NC(=O)CN(C)C(=O)[C@H](CCC(=O)O)NC1=O)C(C)C
# B5: 3BP-3313 (peptide)
# peptide: Ac-VYCE[Sar]DWLTWAC-NH2
# modifications: linker 3-12 via mXylylene
# SMILES: CC(=O)N[C@H](C(=O)N[C@@H](Cc1ccc(O)cc1)C(=O)N[C@H]1CSCc2cccc(c2)CSC[C@@H](C(N)=O)NC(=O)[C@H](C)NC(=O)[C@H](Cc2c[nH]c3ccccc23)NC(=O)[C@H]([C@@H](C)O)NC(=O)[C@H](CC(C)C)NC(=O)[C@H](Cc2c[nH]c3ccccc23)NC(=O)[C@H](CC(=O)O)NC(=O)CN(C)C(=O)[C@H](CCC(=O)O)NC1=O)C(C)C
# Experiments:
# [1] = target: T1, Fc-fusion protein of human carbonic anhydrase IX (human, UniProt Q16790 38-414); experiment: SPR, captured hCAIX-Fc; t1/2 category C: 2.1-5.0 min
# Method: Stock solutions of test compounds were prepared by dissolving each compound in DMSO. DMSO stock solution were diluted 1:1000 in Running Buffer without DMSO. […] SPR binding analyses were performed in Single Cycle Kinetic (SCK) mode at 25° C.
# For each test compound, SPR raw data in the form of resonance units (RU) were plotted as sensorgrams using the Biacore™ T200 control software. The signal from the blank sensorgram was subtracted from that of the test compound sensorgram (blank corrected). The blank corrected sensorgram was corrected for baseline drift by subtracting the sensorgram of a SCK run without the test compound (running buffer only). […] Raw data and fit results were imported as text files in IDBS. The pKD value (negative decadic logarithm of dissociation constant) was calculated in the IDBS excel template.
# [2] = target: T1, Fc-fusion protein of human carbonic …; experiment: SPR, captured hCAIX-Fc; pKD category A: >8.0
binder,measurement,setting,value
{DOTA-APAc″}-V[Dap]CE[dP]DWLTWDC-NH2 (lactam 2-11; linker 3-12 via mXylylene) [3BP-4176],"t1/2 (half-life of the complex, SPR)",[1],2.1 to 5 min
same,pKD,[2],> 8 pkd
B1,"t1/2 (half-life of the complex, SPR)",[1],2.1 to 5 min
same,pKD,[2],> 8 pkd
{DOTA-APAc″}-DCE[dP]DWLTW[Dap]C-NH2 (lactam 10-1; linker 2-11 via mXylylene) [3BP-4254],"t1/2 (half-life of the complex, SPR)",[1],2.1 to 5 min
same,pKD,[2],> 8 pkd
{DOTA}-YCE[dP]DWLTWSC-NH2 (linker 2-11 via mXylylene; also: ['indium complexed by DOTA']) [3BP-3906],"t1/2 (half-life of the complex, SPR)",[1],2.1 to 5 min
same,pKD,[2],> 8 pkd
{DOTA-APAc}-VYCE[dP]D[Phe(4-I)]LTWSC-NH2 (linker 3-12 via mXylylene; not fully specified; reading uncertain) [3BP-4134],"t1/2 (half-life of the complex, SPR)",[1],2.1 to 5 min
same,pKD,[2],> 8 pkd
B2,"t1/2 (half-life of the complex, SPR)",[1],2.1 to 5 min
same,pKD,[2],> 8 pkd
B3,"t1/2 (half-life of the complex, SPR)",[1],2.1 to 5 min
same,pKD,[2],> 8 pkd
{DOTA-Ttds″}-VYCEGDWLTWAC-NH2 (linker 3-12 via mXylylene; not fully specified) [3BP-3272],"t1/2 (half-life of the complex, SPR)",[1],2.1 to 5 min
same,pKD,[2],> 8 pkd
{DOTA-APAc″}-VYCE[dP]DW[Cha]TWSC-NH2 (linker 3-12 via mXylylene) [3BP-4143],"t1/2 (half-life of the complex, SPR)",[1],2.1 to 5 min
same,pKD,[2],> 8 pkd
{DOTA-APAc″}-VYCE[dP]D[Phe(4-CF3)]LTWSC-NH2 (linker 3-12 via mXylylene; not fully specified) [3BP-4139],"t1/2 (half-life of the complex, SPR)",[1],2.1 to 5 min
same,pKD,[2],> 8 pkd
{DOTA-4Amc}-DCE[dP]DWLTW[Dap]C-NH2 (lactam 10-1; linker 2-11 via mXylylene; reading uncertain) [3BP-4258],"t1/2 (half-life of the complex, SPR)",[1],2.1 to 5 min
same,pKD,[2],> 8 pkd
{DOTA-Inp′}-DCE[dP]DWLTW[Dap]C-NH2 (lactam 10-1; linker 2-11 via mXylylene) [3BP-4256],"t1/2 (half-life of the complex, SPR)",[1],2.1 to 5 min
same,pKD,[2],> 8 pkd
{DOTA-Ttds″}-VYCE[Sar]DWLTWQC-NH2 (linker 3-12 via mXylylene; not fully specified) [3BP-3271],"t1/2 (half-life of the complex, SPR)",[1],2.1 to 5 min
same,pKD,[2],> 8 pkd
B4,"t1/2 (half-life of the complex, SPR)",[1],2.1 to 5 min
same,pKD,[2],> 8 pkd
B5,"t1/2 (half-life of the complex, SPR)",[1],2.1 to 5 min
same,pKD,[2],> 8 pkd
{DOTA-APAc″}-YCE[dP]DWLTWSC-NH2 (linker 2-11 via mXylylene) [3BP-3867],"t1/2 (half-life of the complex, SPR)",[1],2.1 to 5 min
same,pKD,[2],> 8 pkd
{DOTA-APAc}-VYCE[dP]DW[Ac5c]TWSC-NH2 (linker 3-12 via mXylylene; reading uncertain) [3BP-3587],"t1/2 (half-life of the complex, SPR)",[1],2.1 to 5 min
same,pKD,[2],> 8 pkd
{Propanoyl(3-OH)}-YCE[dP]DWLTWE([Apr-DOTA])C-NH2 (linker 2-11 via mXylylene; reading uncertain) [3BP-3842],"t1/2 (half-life of the complex, SPR)",[1],2.1 to 5 min
same,pKD,[2],> 8 pkd
